Experimental data from paper PMC8782923, “A Klotho-derived peptide protects against kidney fibrosis by targeting TGF-β signaling” (Nature Communications, 2022).
Ends that are not written are not given here.

Legend:
Conditions in all cases: both partners purified
[1] = biological target: T1, Recombinant TGF-β receptor 2 protein (UniProt P37173 23-166); experiment: SPR; Biacore T200, 25 °C; TβR2 amine-coupled on a CM5 chip (50 µg/ml in 10 mM acetate pH 4.0); peptides in PBS injected at 60 µl/min, 180 s association, 540 s dissociation; 1:1 binding model
T1 construct: TGF-β receptor 2, recombinant, 43.4 kDa, >95% by SDS-PAGE; By its catalogue number probably a human extracellular domain with a carrier tag, biotinylated (surmise); The TβR2 of the microplate assay (10358-H08B) is called human; also called TβR2; type 2 TGF-β receptor; source: bought: Sino Biological Inc. (10358-H03H-B)

[2] = biological target: T2, Recombinant TGF-β receptor 2 protein (10358-H03H-B; Sino Biological Inc.) (UniProt P37173 23-166); experiment: SPR; Biacore T200, 25 °C; TβR2 amine-coupled to a CM5 chip; peptides in PBS injected at 60 μl/min, 180 s injection, 540 s dissociation; 1:1 binding model
T2 construct: TGF-β receptor 2, recombinant, 43.4 kDa; also called TβR2; type 2 TGF-β receptor; source: bought: Sino Biological Inc. (>95% as determined by SDS-PAGE)

[3] = biological target: T3, Human TβR2 (10358-H08B; Sino Biological Inc.) (human, UniProt P37173 23-166); experiment: microplate-based fluorescence direct binding assay; TβR2 (10 μg/ml) or BSA coated on a 96-well microplate; FITC-peptide at 50 μg/ml, 1 h at room temperature, washed four times, fluorescence read
T3 construct: TGF-β receptor 2, human; source: bought: Sino Biological Inc
T3 sequence (P37173 23-166): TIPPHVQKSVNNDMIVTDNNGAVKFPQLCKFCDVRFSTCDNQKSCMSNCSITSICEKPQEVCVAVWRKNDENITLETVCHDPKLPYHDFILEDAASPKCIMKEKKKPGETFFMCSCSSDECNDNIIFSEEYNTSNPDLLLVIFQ

T2 sequence (P37173 23-166): as above
T1 sequence (P37173 23-166): as above

B1: Klotho-derived peptide 1 (peptide, UniProt Q9UEF7 57-86, looked up)
peptide: FQGTFPDGFLWAVGSAAYQTEGGWQQHGKG
notes: Klotho, human, 30 amino acids from Phe57 to Gly86; 3.229 kDa; also called KP1; source: synthetic peptide (GenScript, >95% purity)
A koff [1] of 0.000578 s⁻¹ was found for B1 in this work.

B2: Klotho-derived peptide 1 (KP1) (peptide, UniProt Q9UEF7 57-86, looked up)
peptide: B1 peptide
notes: Klotho, human; peptide of 30 amino acids from Phe57 to Gly86; 3.229 kDa; the results give Phe57 to Gly86; source: synthetic peptide (GenScript, >95% purity)
A Kd [2] of 1.41 µM, a koff [2] of 0.00058 s⁻¹ and a kon [2] of 408 M⁻¹ s⁻¹ were found for B2 in this work.

B3: FITC-labeled KP1 (peptide, UniProt Q9UEF7 57-86, looked up)
peptide: B1 peptide
modifications: also: FITC label, position not given here
notes: Klotho, human; peptide of 30 amino acids from Phe57 to Gly86; also called FITC-KP1; source: synthetic peptide, labeled with fluorescein isothiocyanate (FITC)
B3: binds [3].
